Molecular target: T1, ZNRF3 ECD (UniProt Q9ULT6 56-219, limits assumed)
T1 construct: extracellular domain; also called ZNRF3 extracellular domain; fluorescently labeled ZNRF3 ECDs
T1 sequence (looked up): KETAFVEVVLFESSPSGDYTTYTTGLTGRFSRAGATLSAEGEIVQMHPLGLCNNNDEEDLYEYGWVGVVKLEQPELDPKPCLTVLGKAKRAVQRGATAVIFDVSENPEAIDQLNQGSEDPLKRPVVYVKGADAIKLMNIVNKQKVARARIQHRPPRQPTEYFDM
Experiment: surface plasmon resonance (FIG. 3B)

B1: ZNRF3-specific scFv "Z6" (scFv)
scFv: ASQVQLVQSGAEVKNPGASVKVSCKASGYAFTSYGISWVRQAPGQGLEWMGWISAYTRNTNYAQKFQGRVTLTTDTSTSTAYMELRSLRSDDTAIYYCARDARYSLGVGAFDVWGQGTMVTVSSGILGSGGGGSGGGGSGGGGSETTLTQSPAFMSATPGDKVSISCKASRDIDDDLNWYQQKPGEAAISIIQEATTLVPGIPPRFSGSGYGTDFTLTINNIESEDAAYYFCLQHDDVPYTFGQGTKLEIKSGIL
notes: the display fusion is not described; also called ZNRF3-specific single-chain antibody variable fragment (scFv)
  Kd: 0.08 µM

Source: patent publication US20220041753A1 (H LEE MOFFITT CANCER CENTER AND RESEARCH INSTITUTE, published 2022)
